Measured values: IntAct's records for PubMed 26305884

Molecular target: ccyl1_mouse Ccnyl1 (UniProt D3YUJ3)
Sequence (D3YUJ3 whole entry): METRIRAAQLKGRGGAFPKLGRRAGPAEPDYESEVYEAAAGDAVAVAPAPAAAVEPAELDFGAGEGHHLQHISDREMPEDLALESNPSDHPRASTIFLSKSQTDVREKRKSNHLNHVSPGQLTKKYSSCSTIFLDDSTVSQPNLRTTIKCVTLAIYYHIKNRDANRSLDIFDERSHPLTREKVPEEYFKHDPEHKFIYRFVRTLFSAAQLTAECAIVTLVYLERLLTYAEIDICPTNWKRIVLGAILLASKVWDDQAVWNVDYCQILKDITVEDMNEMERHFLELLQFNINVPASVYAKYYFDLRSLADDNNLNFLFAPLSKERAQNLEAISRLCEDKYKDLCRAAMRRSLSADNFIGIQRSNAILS

Chain of Cyclin-dependent kinase 16 (Mus musculus), Q04735 S78A (Q04735 whole entry S78A): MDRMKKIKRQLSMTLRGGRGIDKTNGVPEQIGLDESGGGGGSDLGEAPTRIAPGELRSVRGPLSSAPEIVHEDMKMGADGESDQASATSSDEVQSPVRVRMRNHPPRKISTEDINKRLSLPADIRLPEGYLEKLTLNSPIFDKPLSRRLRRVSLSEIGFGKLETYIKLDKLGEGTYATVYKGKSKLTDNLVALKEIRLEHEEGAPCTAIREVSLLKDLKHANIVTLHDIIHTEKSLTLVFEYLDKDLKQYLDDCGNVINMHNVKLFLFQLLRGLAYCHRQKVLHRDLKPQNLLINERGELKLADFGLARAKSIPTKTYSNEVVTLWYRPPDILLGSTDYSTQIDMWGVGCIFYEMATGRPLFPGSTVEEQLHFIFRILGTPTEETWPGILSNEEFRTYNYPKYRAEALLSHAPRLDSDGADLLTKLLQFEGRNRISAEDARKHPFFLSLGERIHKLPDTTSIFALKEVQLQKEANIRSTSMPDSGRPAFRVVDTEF
Chain of Cyclin-dependent kinase 16 (Mus musculus), Q04735 S119A (Q04735 whole entry S119A): as the sequence (Q04735 whole entry S78A) above, with A78S, S119A counted along it
Chain of Cyclin-dependent kinase 16 (Mus musculus), Q04735 S153D (Q04735 whole entry S153D): as the sequence (Q04735 whole entry S78A) above, with A78S, S153D counted along it
Chain of Cyclin-dependent kinase 16 (Mus musculus), Q04735 S110A (Q04735 whole entry S110A): as the sequence (Q04735 whole entry S78A) above, with A78S, S110A counted along it
Chain of Cyclin-dependent kinase 16 (Mus musculus), Q04735 S110D (Q04735 whole entry S110D): as the sequence (Q04735 whole entry S78A) above, with A78S, S110D counted along it
Chain of Cyclin-dependent kinase 16 (Mus musculus), Q04735 S146A (Q04735 whole entry S146A): as the sequence (Q04735 whole entry S78A) above, with A78S, S146A counted along it
Chain of Cyclin-dependent kinase 16 (Mus musculus), Q04735 S153A (Q04735 whole entry S153A): as the sequence (Q04735 whole entry S78A) above, with A78S, S153A counted along it
Chain of Cyclin-dependent kinase 16 (Mus musculus), Q04735 S146D (Q04735 whole entry S146D): as the sequence (Q04735 whole entry S78A) above, with A78S, S146D counted along it

Row | effect of a mutation on the interaction | Substance
1 | disrupting interaction strength | Cyclin-dependent kinase 16 (Mus musculus), Q04735 S146A
2 | decreasing interaction strength | Cyclin-dependent kinase 16 (Mus musculus), Q04735 S110A
3 | decreasing interaction strength | Cyclin-dependent kinase 16 (Mus musculus), Q04735 S119A
4 | increasing interaction strength | Cyclin-dependent kinase 16 (Mus musculus), Q04735 S78A

More lines, now with the values behind:

Row | Substance | effect of a mutation on the interaction
5 | Cyclin-dependent kinase 16 (Mus musculus), Q04735 S153D | decreasing interaction strength
6 | Cyclin-dependent kinase 16 (Mus musculus), Q04735 P205A;T207A;R210A;E211A | disrupting interaction strength
7 | Cyclin-dependent kinase 16 (Mus musculus), Q04735 T175D | increasing interaction strength
8 | Cyclin-dependent kinase 16 (Mus musculus), Q04735 S146D | disrupting interaction strength
9 | Cyclin-dependent kinase 16 (Mus musculus), Q04735 S153A | increasing interaction strength
10 | Cyclin-dependent kinase 16 (Mus musculus), Q04735 T175A | decreasing interaction strength
11 | Cyclin-dependent kinase 16 (Mus musculus), Q04735 S110D | decreasing interaction strength
